We go through 47 sequences from the NTF2 design screens of Basanta et al. (2020).

This data set is described as follows: protease stability score; higher = more stable; yeast display proteolysis, trypsin and chymotrypsin.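 Further: relative to predicted unfolded state with 0 unfolded-like and 1 meaning tenfold more protease.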
“DEEEEMRRRQTTLFLEAWITGDWDLIQRLLDPHTRVDVNGVEIHGMEEFARWFREKKEKVKNLRSHLTDIELQGEKVILYGIDTVNGKTHKVRVKVDIVDGVIKEVRFDLR” showed a protease stability score of 1.4.

The sequence “DEEEEMSKEATEWFKRVSKTGDEKDLVEFLDPNVLLEIGDKRFHGREVASHWMTRMFHEIRIRHIEEKEFRIYNGRATLHEHLDIEFDGRTSKIHVTVVYIKVNGRWFMESLHIR” gave a protease stability score of 0.808.

On to “DEEEEMSKELAELLVKAFVTGDWEEMTSMADPRTRTDVNGKDLHGWDESLRVIEELLRKMGIKHSNIHTVRVQGNWIHIDIRVIVGDKYHEVEIRVLVVNGRLKYLEYRIK”, for which the protease stability score was 1.98.

As to “DEEEEMVLEMAYLFIHALHTGDEDMIRHLADPNMKVDINGQEHHGRDMSNEWWRREIDQIKNVRVDIDIDELHVIDGVAYVRTTVRYHFDGRTIVYFTTFDLIIVNGKIKSVKWEVE”, the protease stability score was 1.83.

The sequence “DEEEEMVREVLHRVIHNILTGDEDSVSRMADPHVRVKEIINGKEFTLHGREMMLHMIREWRNRADHVEIHIRRSRVINGRLDSHGLLIIEINGKEIRHDTNLHLYVVDGVIKILTWNIE” registered a protease stability score of 1.45.

The sequence “DEEEENMRIAFKLLIEMHRTGDPEEHLELFDPHVRSIIGDKEYHGWEEYMRWIQHARVKELKLDSHRVYNGRVELDVRINVDVNGREIDREVHIIAEKVNGRWHFKSVRVL” displayed a protease stability score of 1.41.

The sequence “DEEEENSRRAIEIVLQHMETGDEKTLEELVDPHVKLHYGDKTSHGRHHVAHLIMRLGVKHSRVEHVDSQGDKVFFFTRMRIGDKHFDTRVILLKVDGKWQIHELKFD” yielded a protease stability score of 1.96.

Turning to “DEEEEQAHTMLEIFLHNLVTGNEETINTLMDPHARTDIDGKIFHGRDWLEHFLRRFPHVRLHLKHIEWRVINGVAHLHLEMHVNVDGRHFDVRFHIHNEKINGRWFSHSFKYSIE”, the protease stability score is 1.44.

The sequence “DEEEEQARDLTKLLEKLWATGDEHTLLRLLDPNARNIVGDKEHHGREILLKFWRHLGVSRVESKIEDVKVFDGRVYIKGRVRFDGVELETEIESEKVNGQWHIRIIRMR” returned a protease stability score of 1.79.

In the case of “DEEEEQARHMVMLFLRYILTGDEKHFQTLADPDVRTDVNGKEHHGREEATRTLRLYIELMGADHIQLKDWEIEVQGEFVRLRLHVQVDVGDKHLRTDLHFEIKKVNGQWVVHQVVIKTL”, the protease stability score came out at 2.19.

“DEEEEQTHHMFKRILEVLRTGDERMLLDLADPHVRLEVGDKHMIGMDSLVHFNARIKNMRIRLRSIDFQGDYAHINTELEFDGRNHHITIVVLKVDGKWIIRSQHVK”: the protease stability score was 1.46.

“DEEEERARHWIERFVRAVLTGDWEHILRNADPNVRLHVGDKEIHGRERMIETFREFWERYPGVRIKIHQVEIQGEKSHLDGEIRFDGRRFRVEFEVVIINGKIHELHIRIH”: the protease stability score came out at 2.62.

As for “DEEEERARRDLFIWAHAVKTGDEKRYKELFDPNDKLDINGQEIHGMESVVKLIRHIRIEDIHLHLHDIRLIGDKLHVDGQIRQHTHVGDKRVHDTINVNDIVHKVNGQWHWKSIIYH”, the protease stability score amounted to 1.03.

With “DEEEEREKELRERWEHFLKTGDWKKIEELADPHVRLDVGDKELVGRELFVEFIRRLLEHLGFNVFRINHIDLQGEKINMDVEREIGDKSTRVELHILKIDGQWILKRVIIN”, the protease stability score is 1.82.

“DEEEERFEEVWRRLARALETGDEETVRHLIDPNVLIIIGDKTIHGWESLSTYLKEIRLTISDMRVRSRSEVNGKLEFDTHTHRVVFINGVELHVEERIHITMLKIDGRWHIHSIEFR” registered a protease stability score of 1.45.

Consider “DEEEERLEELSKLLLEMVLTGNWDETLELADPHALIEIGDKRFHGWEHWVKLYLRIKNVRFELRIDSVRPIGDKAEIDGHVIIRIGDKEKEFDLRVEIDVVDGRLKENSIRRR”, for which the protease stability score stood at 1.35.

“DEEEERLEKLAEILIHYHLTGDFEILLEYADPNVQTEFDGVEIHGMELSNKFLEKSNKKLGVDHRHYKSYSAYGNKVTVLSEIHVNGRKMEVRFRWDVVNGKIQTLHIHFD” gave a protease stability score of 1.05.

Sequence “DEEEERMDRAYDHWRENILTGDWKRLRELADPHAKMDINGVDIHGMETFNKILSEELKEIRLKDVHIDDKHVVDGQLHVHGKRETLFNGKNTWIKTHIHLVIIDGRFHSYTVHIE” had a protease stability score of 0.281.

For “DEEEERMQEKLHRYLHDLVTGDEEEFHKYADPHVKTRVGDKILHGREKAREFWHEIRIKDIKLDHKDIQGDFVRLHVRVHGRINGQDIDFRVEIFFRKINGRWIIESQEIN”, the protease stability score was determined as 0.816.

Take “DEEEERRRHLIDVLLRLWHTGDEESFTNLADPHVRIHVGDKIFHGREAASRWMHNVREHWRLHHERDHDVKIQGEKVVRDGHVDIEFNGVRVRTRVEIILTVVNGQIKLIEIRIL”: the protease stability score is 1.26.

“DEEEERTERVSQLFWELFLTGDEEELFKLVDPHVRSHVGDKDYHGRETAHEIWHRIKNVRMRLDHVELRIVNGRADLHVRGKLIIGDKKVELNIEILVVKVNGQWLVERIRVETK” gave a protease stability score of 1.31.

As to “DEEEERTKHHFELLFKLWTTGDEDSLSHLADPNVRVHVDGKDFHGWEDMKDFMREWIERFKNVRLELKHFEAQGDKASSEIKIHYGDKHVTEFIEIILFNGRLHEIRRLFKRD”, the protease stability score is 1.01.

On to “DEEEERVIHIMHLFLEHISTGDEDKVKHLMDPNVRVFIGNKQHVGMHEIIKHLREWRIELDDVRTEEVRIQGDKLHLNGRLHVTLEFNGRRIRTTVRTTNIFRKVDGRWILEAIHID”, for which the protease stability score was 1.58.

“DEEEERVRNFVERLSKAVRTGDEEEMRDLFDPDVKSRQGDKDVIGRELVAEWLSKFFLRRGIEVHFELKRFEFQGDYLHLRLHVEVRIDGKDHTLTMYVLLIKVDGRWILHSIHRE” registered a protease stability score of 1.54.

“DEEEERVRRIMKEFIESLLTGDFRILTELMDPNARLHVDGVELHGRETMRKFWKDRERELGVENFDAKQRDVRLINGKAHNDGELLINGQVTKWILRVEKVDGRWRLHHIELH” displayed a protease stability score of 0.231.

Sequence “DEEEESNRHLAEKFEEHHRTGDWRMMSKMFDPHVRVERIFNGRTVIIHGWEKYVKTVKDEFERIKGARLIIDDMKVQGEKSRVEGTLKINGRTVEVDIHLDIVDGRLRHVRIEIE” came in with a protease stability score of 0.201.

As for “DEEEESSHNALKYWMHSLITGDEHTIERLADPHVLMVVNGKTFHGMERFHEALHEFNERIDHIERIEIKDMKIFDGRVIVELKVHGRIGDKRHELETYLVILKYDGKWHLHSISVK”, the protease stability score was found to be 0.964.

The sequence “DEEEESTKRVAKVLHHTNRTGDEKTMNEMLDPNAKQDYNGRINIGWERILEVLREWKDRLGLTRIELHIHDFDIQGDKARIDTTVDFNGVEFKLIIYVRKIDGKWVLERIEVR” registered a protease stability score of 0.368.

For the sequence “DEEEESYRIAEHLFREVMETGDERISEHLADPRTRFQVGDKTFHGMDEWREVLHRMLVEIRMHDVKVHDVKSIGDKLIIDGYLYIEINGRRTSIYTELYWLKVNGQWRLHYITMH”, the protease stability score amounted to 1.12.

In turn, “DEEEETARRLTEELIRSQKTGDWEFLLRLMDPHAKSDINGVHVVGMEETVRILEKLLRDLGVTKVEALLHRVHFIDGRVHVDSEERYGDKWFRVHFTVQKINGKWVIRSIEVR” displayed a protease stability score of 1.4.

As to “DEEEETEKKWADIFTKAWITGDEETLERLMDPNVKYHQEVGDKHWSAHGREEVSRHIHELLKHLGVKVVELRRIHVINGVVHVDGKTIVNGREFTVHIHYRIVDGRVREIRFEFR”, the protease stability score came out at 2.22.

“DEEEETIRKYIEMMIRLWETGDEKSMLDLFDPDVRTLVNGQHLHGRHALEILLRRIDVRRHVHLHHIDLQGNKVEIDSRLEGTVDGKRDDIELTHHMVKVDGQWVIHNVEVR”: the protease stability score turned out to be 1.02.

“DEEEETIRRDAKLTLDLIRTGDEEHLKKMLDPHVRLQIVIGDKTIENHGREEVIRRLRHEWKRFKNMRILIEDKRVVGNWVHFFGTILYNGVEHEAVLDLVLIDGVLHSIRINVI” came in with a protease stability score of 1.6.

In the case of “DEEEETLREMLRMSKEALETGDETELHELFDPNVRVVVDGVTLHGWEAWSQFLREIRLSIREVRIKRVDRVDGKIIIDGKFHRIIIQGDKTRENTIDAEVLIRKVDGKWVYEHDSYL”, the protease stability score stood at 0.823.

Turning to “DEEEETLRWVKELLKHLSKTGDFEKIVNYMDPDVRLNVDGVELVGMHHLERLAKEIRFKIHDLHPRRERIFDGKIQMDVEIDRIIHYGDKTTRERTTIIIIFEKVNGRWLIHTIHVH”, the protease stability score amounted to 1.17.

Sequence “DEEEETMERALRETLHFINTGDEDSMEELMDPNWRIHIDGKDLHGWKFFQHLLRRADHIHIHIELKDVRRVGDKLELDGRLHVIYFIDGQEIHKVVDTHIYMIKINGRWHHKFIEIK” displayed a protease stability score of 2.15.

With “DEEEETMRNIIMDWFRAMFTGDEERVNELLDPNARIEVGDKEWHGRDEFRKVLEHIRIHTRQIRIRRIDFFENRVHMDVQLDRELRFDGKTERIDVKLELFLVKIDGRWRFKETSVH”, the protease stability score amounted to 2.57.

Take “DEEEEVLKTYLKLLIDALRTGDEHTMTRLIDPHARTHQGDKEIHGRKSMEELNKRYPNVRVDIRHISEVGDKITIDAVLHVGDKRYEIVIIAWKVNGRWEHTEFEFR”: the protease stability score was 0.808.

As for “DEEEEWARYILKKTMEAWLTGDEEIIRELLDPSTRLVIDGKEFHGMDEAQFLVREIRIDRIRTDMHDVKFQGDWIHVDGHIRVDETVNGRRRHKENRINIIVLKIDGRWYLHRYIIG”, the protease stability score came out at 2.35.

“DEEEEWATEAWKLHLHHHRTGDERMIHELLDPNMRLDFDGVELHGRKLVKEFIERTLRRFDVIDEYDHSDVRIQGDKVDLIQVVRGEIDGRRTHVNQRLIMIKIDGRWVVKHVRLQ” showed a protease stability score of 1.23.

In the case of “DEEEEWLREVLRLIIEFLKTGDEDRLNEMADPTTRLRVGEFHHVGREEVHKFRKKKKDELGVDKIEFRLEDVRIQGDKATADGRVQYNGQEYKMRVIVVVVNGKVKSLTEEWE”, the protease stability score came out at 1.07.

“DEEEEWVRHLAHLFFEWYLTGDWQRFSELMDPTTLSVYGDKHFHGMELVVEFLSRSLDEMRIEHVEFKDIRVYNGVAHVHLRFEGKIGDKRTETDSRLLLYVVDGRIKHVKFIIK”: the protease stability score turned out to be 1.39.

Turning to “DEEEEYAHRFVEDFIDAWLTGDEDRLEELMDPNVKIVVGDKVLVGRHLVIRLMHEWIRKYKGIKFVFHVKHLEAINGRLEIESEVDLRINGRKIKHTSKMVVRKIDGKWEIREFHLN”, the protease stability score was 2.38.

Consider “DEEEEYAIEFVILHIEALKTGDERKLEHLMDPHYKLDYNGRKVHGREQWLRFLNEWRVHIHDIKVDDHDVVNGRVILHVTIHGTVIFDGRNIRTHHEQEYVLHKVNGRWHFHSMIVR”, for which the protease stability score was 1.5.

“DEEEEYHRRVLETITRARLTGDEDLFRKNVDPDVKIEVHVGNFRFHDVGWEHLRRWIEELGFEIHHIEIKHEHVINGVMHQESERDGTFNGVRDRVKVRFIYFIVNGRIKHIRFEVE” yielded a protease stability score of 0.781.

The sequence “DEEEEYLHKRAREFFRSFLTGDWHFLMHLLDPNVRWEVIIGNKRIERHGREELFKDLLRWLEEIRIKRMHVEEIHVFDGQLFMRVSAHGEFNGKERDTHEELVVVVVNGRFKSARIHVH” returned a protease stability score of 1.65.

The sequence “DEEEEYYRRAVEIHERVLRTGDWRQLRELMDPRTKIDVGDKSFHGRDTITHWTKEMLEKFGVTKVEFHFDHLEMQGDKANIRGTLQINGQPIDISIHSVKIDGRWLIKFVKID” showed a protease stability score of 0.822.
